Assay [1] has as its target T1, GST-ANI-1^C-term (681-1159 AA) (C. elegans, UniProt Q9XTT4 681-1159).
T1 construct: ANI-1 (anillin homolog), C. elegans, residues 681-1159 comprising the RBD, C2 region and PH domain; Cloned into pGEX-4T; used on the beads directly in the pull-down; also called GST-tagged C-terminus of ANI-1; anillin C-terminus; source: E. coli BL21 (DE3), purified on Glutathione Sepharose 4B beads
T1 sequence (looked up): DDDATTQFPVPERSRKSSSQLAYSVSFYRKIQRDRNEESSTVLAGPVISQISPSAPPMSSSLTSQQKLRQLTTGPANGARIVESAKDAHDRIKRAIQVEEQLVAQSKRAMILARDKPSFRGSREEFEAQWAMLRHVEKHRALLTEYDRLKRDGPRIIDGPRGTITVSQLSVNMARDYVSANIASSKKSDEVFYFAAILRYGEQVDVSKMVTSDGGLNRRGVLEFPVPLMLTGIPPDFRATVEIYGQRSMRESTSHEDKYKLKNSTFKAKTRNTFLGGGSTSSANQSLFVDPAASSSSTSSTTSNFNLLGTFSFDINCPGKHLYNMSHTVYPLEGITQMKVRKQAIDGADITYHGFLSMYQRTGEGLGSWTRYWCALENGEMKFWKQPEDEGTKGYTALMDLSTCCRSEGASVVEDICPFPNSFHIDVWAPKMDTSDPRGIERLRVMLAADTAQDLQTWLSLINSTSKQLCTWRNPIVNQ
The experiment in a line: pull-down; ~4 μg GST-ANI-1 fragment on Glutathione Sepharose beads mixed with ~4 μg purified 10xHis-RHO-1 in 300 μl binding buffer (20 mM Tris pH 7.4, 150 mM NaCl, 5 mM MgCl2, 0.1% Triton X-100, 1 mM DTT) with 1 mM GTP, 4°C, 1.5 h; bound RHO-1 detected by anti-His immunoblot. The following applies: both partners purified. A general note: A western blot detects proteins with antibodies after separation by electrophoresis.

The target in assay [2] is T2, GST-ANI-1^Link+C-term (460-1159 AA) (C. elegans, UniProt Q9XTT4 460-1159).
T2 construct: ANI-1 (anillin homolog), C. elegans, residues 460-1159: linker region, RBD, C2 region and PH domain; Cloned into pGEX-4T; used on the beads directly in the pull-down; also called protein consisting of the linker region and C-terminus; source: E. coli BL21 (DE3), purified on Glutathione Sepharose 4B beads
T2 sequence (looked up): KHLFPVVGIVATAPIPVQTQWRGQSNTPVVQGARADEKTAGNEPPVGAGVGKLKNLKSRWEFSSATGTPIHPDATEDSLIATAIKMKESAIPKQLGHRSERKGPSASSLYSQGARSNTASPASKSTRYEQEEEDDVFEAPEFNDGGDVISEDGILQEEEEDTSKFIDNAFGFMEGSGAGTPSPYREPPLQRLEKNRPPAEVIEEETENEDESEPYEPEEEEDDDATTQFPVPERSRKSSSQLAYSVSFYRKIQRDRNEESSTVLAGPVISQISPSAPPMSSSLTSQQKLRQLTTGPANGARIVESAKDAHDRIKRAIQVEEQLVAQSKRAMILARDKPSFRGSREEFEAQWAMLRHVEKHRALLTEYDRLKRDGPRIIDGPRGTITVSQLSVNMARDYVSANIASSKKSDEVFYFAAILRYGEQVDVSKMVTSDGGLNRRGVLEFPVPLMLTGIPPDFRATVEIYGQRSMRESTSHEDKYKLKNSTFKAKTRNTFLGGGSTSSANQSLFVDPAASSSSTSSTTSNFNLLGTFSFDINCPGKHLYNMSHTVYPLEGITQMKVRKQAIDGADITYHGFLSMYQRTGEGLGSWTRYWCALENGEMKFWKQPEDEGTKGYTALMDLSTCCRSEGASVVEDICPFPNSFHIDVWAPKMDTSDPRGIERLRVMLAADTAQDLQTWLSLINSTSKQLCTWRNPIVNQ
The description is as above. To be noted: both partners purified.

B1: 10xHis-RHO-1^WT (wild type RHO-1, 1-188 AA) (domain or fragment)
chain: not shown
notes: RHO-1 (RhoA in humans), C. elegans, residues 1-188 (without the CAAX motif), amplified from cDNA; Cloned into pET-19b; also called His-tagged RHO-1; RhoA; source: E. coli BL21 (DE3), purified (Ni-NTA)
For B1, the binding result in assay [1] is “binds”.

B2: 10xHis-RHO-1^Q63L (constitutively active RHO-1, 1-188 AA) (domain or fragment)
chain: not shown
notes: RHO-1 (RhoA in humans), C. elegans, residues 1-188, with Q63L made by site-directed mutagenesis of the wild type construct; Cloned into pET-19b; source: E. coli BL21 (DE3), purified (Ni-NTA)
B2: the binding result in assay [1] and in assay [2] was “binds” in each case.

(Values after paper PMC12013513, “Anillin mediates unilateral furrowing during cytokinesis by limiting RhoA binding to its effectors” (The Journal of Cell Biology, 2025).)
